The nature of data set [1]: anti-FLAG WB normalised to β-actin, HeLa. Conditions: glycan lost; control: wild-type SF.
Data set [2] can be described thus: WB of culture media, HeLa (data not shown). Conditions: glycan lost; control: wild-type SF.
Data set [3] in a line: anisomycin chase 2-10 h, anti-FLAG WB, HeLa. Conditions: glycan lost; control: wild-type SF.
The nature of data set [4]: non-reducing SDS-PAGE and WB, dimer fraction, HeLa. Conditions: glycan lost; control: wild-type SF.
Data set [5] in a line: anti-Sda KM694 WB of HeLa glycoproteins, normalised. Particulars: glycan lost; control: wild-type SF.
A short description of data set [6]: confocal colocalisation with TMEM165 and Calnexin, HeLa. Particulars: glycan lost; control: wild-type SF-eGFP.
A short description of data set [7]: UDP-[3H]GalNAc transfer to fetuin, COS-7 lysates, normalised. Particulars: glycan lost; control: wild-type SF.

B1: SF-B4GALNT2: N77Q (protein)
parent chain: MTSGGSRFLWLLKILVIILVLGIVGFMFGSMFLQAVFSSPKPELPSPAPGVQKLKLLPEERLRNLFSYDGIWLFPKNQCKCEANKEQGGYNFQDAYGQSDLPAVKARRQAEFEHFQRREGLPRPLPLLVQPNLPFGYPVHGVEVMPLHTVPIPGLQFEGPDAPVYEVTLTASLGTLNTLADVPDSVVQGRGQKQLIISTSDRKLLKFILQHVTYTSTGYQHQKVDIVSLESRSSVAKFPVTIRHPVIPKLYDPGPERKLRNLVTIATKTFLRPHKLMIMLRSIREYYPDLTVIVADDSQKPLEIKDNHVEYYTMPFGKGWFAGRNLAISQVTTKYVLWVDDDFLFNEETKIEVLVDVLEKTELDVVGGSVLGNVFQFKLLLEQSENGACLHKRMGFFQPLDGFPSCVVTSGVVNFFLAHTERLQRVGFDPRLQRVAHSEFFIDGLGTLLVGSCPEVIIGHQSRSPVVDSELAALEKTYNTYRSNTLTRVQFKLALHYFKNHLQCAA
For the protein B1, the expression_or_secretion entry in data set [1] was “decreases”; in data set [2] it was “no change”. Moreover, the degradation_or_half_life result in data set [3] is listed as “increases”. In addition, the oligomerisation result in data set [4] is “decreases”. For the same protein, the enzymatic_activity entry in data set [5] is reported as “no change”; in data set [7] it was “decreases”. For the same protein, the localisation_or_trafficking result in data set [6] is on record as “changes”.

Source of the values: article PMC9959560.
